Measurements published in patent publication US20230025129A1 (KYMAB, published 2023).

T1: human matriptase-2 mask ECD protein his tag (human, UniProt Q8IU80 78-576)
T1 construct: MTP-2 ECD without the serine protease domain, with C-terminal linker and His tag; also called headless huMTP-2 ECD 78-576 aa; headless human MTP-2 ECD
T1 sequence: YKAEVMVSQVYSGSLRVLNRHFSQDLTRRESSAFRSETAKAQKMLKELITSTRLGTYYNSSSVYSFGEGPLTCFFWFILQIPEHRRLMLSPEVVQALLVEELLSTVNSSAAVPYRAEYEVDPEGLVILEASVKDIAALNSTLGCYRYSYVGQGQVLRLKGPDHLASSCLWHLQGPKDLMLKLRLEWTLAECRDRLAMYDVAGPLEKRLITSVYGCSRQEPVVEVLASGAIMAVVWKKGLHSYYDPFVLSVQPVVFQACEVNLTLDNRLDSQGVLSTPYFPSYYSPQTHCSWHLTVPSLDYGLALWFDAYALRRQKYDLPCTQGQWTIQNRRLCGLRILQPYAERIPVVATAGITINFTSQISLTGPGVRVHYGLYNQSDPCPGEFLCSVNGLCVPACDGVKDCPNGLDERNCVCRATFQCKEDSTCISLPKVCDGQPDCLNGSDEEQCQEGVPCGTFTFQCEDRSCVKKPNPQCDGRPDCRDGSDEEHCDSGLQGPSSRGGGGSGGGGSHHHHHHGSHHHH

T2: human matriptase-2 ECD protein his tag (human, UniProt Q8IU80 78-811)
T2 construct: also called human MTP-2 ECD; huMTP-2
T2 sequence: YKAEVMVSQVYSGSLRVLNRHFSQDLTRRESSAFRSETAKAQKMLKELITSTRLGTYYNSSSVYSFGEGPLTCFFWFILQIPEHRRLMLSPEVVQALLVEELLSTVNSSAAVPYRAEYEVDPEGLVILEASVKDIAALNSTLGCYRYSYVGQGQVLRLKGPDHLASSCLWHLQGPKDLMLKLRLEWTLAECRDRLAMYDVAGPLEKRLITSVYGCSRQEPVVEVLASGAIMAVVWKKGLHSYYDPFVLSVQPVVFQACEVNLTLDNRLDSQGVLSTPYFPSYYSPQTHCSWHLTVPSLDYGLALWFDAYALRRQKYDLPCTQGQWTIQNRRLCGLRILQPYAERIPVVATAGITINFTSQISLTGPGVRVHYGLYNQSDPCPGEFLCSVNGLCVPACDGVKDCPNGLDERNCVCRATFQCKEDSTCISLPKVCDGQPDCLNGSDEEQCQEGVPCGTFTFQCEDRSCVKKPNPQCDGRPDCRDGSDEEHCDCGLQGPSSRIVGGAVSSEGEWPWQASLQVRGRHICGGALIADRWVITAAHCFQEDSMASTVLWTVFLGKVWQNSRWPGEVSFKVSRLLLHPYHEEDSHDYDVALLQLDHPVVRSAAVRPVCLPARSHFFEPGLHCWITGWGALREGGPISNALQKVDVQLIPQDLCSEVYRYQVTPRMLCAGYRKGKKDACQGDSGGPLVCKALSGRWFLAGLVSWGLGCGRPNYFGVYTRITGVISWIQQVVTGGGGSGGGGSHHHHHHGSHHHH

T3: mouse matriptase-2 ECD protein his tag (mouse, UniProt Q9DBI0 80-811)
T3 construct: aa 80-811 of Q9DBI0 with C-terminal linker and His tag; also called mouse MTP-2 ECD; moMTP-2
T3 sequence: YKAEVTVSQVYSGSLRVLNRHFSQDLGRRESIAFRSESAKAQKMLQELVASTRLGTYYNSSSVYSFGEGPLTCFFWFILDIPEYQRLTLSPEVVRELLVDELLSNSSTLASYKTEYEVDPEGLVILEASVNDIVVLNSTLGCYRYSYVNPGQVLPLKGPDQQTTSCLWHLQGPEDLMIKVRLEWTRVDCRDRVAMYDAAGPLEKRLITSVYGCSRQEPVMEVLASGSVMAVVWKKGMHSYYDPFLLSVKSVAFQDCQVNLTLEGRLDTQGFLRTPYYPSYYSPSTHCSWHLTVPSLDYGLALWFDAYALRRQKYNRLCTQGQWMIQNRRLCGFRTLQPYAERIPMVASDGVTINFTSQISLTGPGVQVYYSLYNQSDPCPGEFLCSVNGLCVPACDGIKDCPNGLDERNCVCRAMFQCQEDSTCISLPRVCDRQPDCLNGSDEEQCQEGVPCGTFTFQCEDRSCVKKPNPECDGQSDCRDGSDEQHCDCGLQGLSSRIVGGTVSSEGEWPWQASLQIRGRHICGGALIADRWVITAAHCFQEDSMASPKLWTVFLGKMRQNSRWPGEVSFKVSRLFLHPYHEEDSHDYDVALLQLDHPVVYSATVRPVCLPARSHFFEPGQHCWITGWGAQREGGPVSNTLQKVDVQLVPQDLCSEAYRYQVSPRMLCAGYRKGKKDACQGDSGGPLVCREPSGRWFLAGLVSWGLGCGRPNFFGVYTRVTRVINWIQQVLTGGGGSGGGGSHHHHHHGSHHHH

T4: human MTP-2 expressed on HEK293 cells (human, UniProt Q8IU80 1-811)
T4 sequence: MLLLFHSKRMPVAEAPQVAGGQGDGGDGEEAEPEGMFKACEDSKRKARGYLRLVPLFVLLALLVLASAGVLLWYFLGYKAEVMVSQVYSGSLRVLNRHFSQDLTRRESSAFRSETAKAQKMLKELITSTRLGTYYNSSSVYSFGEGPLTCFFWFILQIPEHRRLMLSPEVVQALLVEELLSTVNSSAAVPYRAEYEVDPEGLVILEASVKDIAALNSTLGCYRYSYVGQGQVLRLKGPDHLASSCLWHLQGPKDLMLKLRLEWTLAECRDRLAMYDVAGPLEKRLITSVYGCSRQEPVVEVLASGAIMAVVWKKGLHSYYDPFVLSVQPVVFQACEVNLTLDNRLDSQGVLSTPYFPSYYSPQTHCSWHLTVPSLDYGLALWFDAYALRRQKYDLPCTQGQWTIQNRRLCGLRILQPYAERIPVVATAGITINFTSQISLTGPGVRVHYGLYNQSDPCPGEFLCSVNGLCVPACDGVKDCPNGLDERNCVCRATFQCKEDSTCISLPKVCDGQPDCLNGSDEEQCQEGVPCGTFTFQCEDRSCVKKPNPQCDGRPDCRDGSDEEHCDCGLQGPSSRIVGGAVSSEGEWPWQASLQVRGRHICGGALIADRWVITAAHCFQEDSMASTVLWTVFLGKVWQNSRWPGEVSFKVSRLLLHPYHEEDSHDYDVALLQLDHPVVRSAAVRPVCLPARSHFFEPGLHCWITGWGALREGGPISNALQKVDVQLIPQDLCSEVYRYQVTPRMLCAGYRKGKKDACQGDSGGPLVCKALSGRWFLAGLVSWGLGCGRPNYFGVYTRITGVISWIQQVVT


Columns and labels:
[1] = molecular target: T1, human matriptase-2 mask ECD protein his …; test: SPR, antibody captured, headless ECD as analyte
Description: (§1) Off-rate screening was performed by surface plasmon resonance (SPR), using a Biacore 8K system (GE Healthcare). Anti-human Fc mix (˜1000 RU) were immobilised in both active and reference channels in HBS-P+ buffer (GE BR100671) pH 7.4. Anti-MTP-2 hulgG4PE antibodies were then captured for 60 sec at 10 μl/min at 1 μg/ml concentration (approximatively 35 and 50 RU were captured) only on the active channel. MTP-2 ECD protein analytes were then injected (at 100, 25, 6.25, 1.56 and 0 nM concentrations) for 120 sec (association time) at 30 μl/min and dissociation monitored for 600 sec. Multiple cycle kinetics mode was used with all 8 channels being used. Reference and background were subtracted from the sensorgrams for each antibody and data was fitted using a 1:1 interaction model in the Biacore evaluation software. Rmax, ka, kd globally fitted, RI=0.
Binding was also assessed using the above SPR method with “headless” huMTP-2 ECD 78-576 aa instead of the full ECD. Headless ECD corresponds to the MTP-2 ECD without the serine protease domain.

[2] = molecular target: T2, human matriptase-2 ECD protein his tag; test: SPR (Biacore 8K), huIgG4PE captured on anti-human Fc, MTP-2 ECD as analyte, 1:1 fit
Description: as §1

[3] = molecular target: T3, mouse matriptase-2 ECD protein his tag; test: as above
Description: as §1

[4] = molecular target: T2, human matriptase-2 ECD protein his tag; test: cell-based or functional assay
[5] = molecular target: T3, mouse matriptase-2 ECD protein his tag; test: cell-based or functional assay
[6] = molecular target: T4, human MTP-2 expressed on HEK293 cells; test: cell-based or functional assay

Row | Binder | Binding Late top conc [2] | Kd [2] | Stoichiometry [2] | koff [2] | kon [2] | Binding Late top conc [3] | Kd [3] | Stoichiometry [3] | koff [3] | kon [3] | Inhibition enzymatic activity human MTP2 protein (IC50) [4] | Inhibition enzymatic activity mouse MTP2 protein (IC50) [5] | Inhibition enzymatic activity human MTP2 on cells (IC50) [6] | binding result [1]
1 | NORI-010 (antibody, human IgG4 S228P, lambda, human IgG4PE, lambda) heavy: not shown light: QSALTQPPSASGSPGQSVTISCTGTSSDVGFYNFVSWYQQHPDKAPKVMIYEVSKRPSGVPDRFSGSKSGNTASLTVSGLQAEDEADYYCSSYAGSNKVVFGGGTKLTVLGQPKAAPSVTLFPPSSEELQANKATLVCLISDFYPGAVTVAWKADSSPVKAGVETTTPSKQSNNKYAASSYLSLTPEQWKSHRSYSCQVTHEGSTVEKTVAPTECS | 7.9 | 10.5 nM | 0.63 | 0.000442 s⁻¹ | 42300 M⁻¹ s⁻¹ | 4.5 | 24.4 nM | – | 0.000324 s⁻¹ | 13300 M⁻¹ s⁻¹ | 17.7 nM | 9.76 nM | 3.51 nM | no binding (tested: analyte up to 100 nM)
2 | NORI-012 (antibody, human IgG4 S228P, lambda, V domains shown, human IgG4PE, lambda) VH: EVQLVESGGGLVQPGRSLRLSCAASGFTFDDHVMYWVRQAPGKGLEWVSGISWNSDTIGYADAVKGRFTISRDNAKNVLYLHMNSLRPEDTALYYCAREKDGDFYYNYFVMDVWGQGTTVTVSP VL: QSALTQPPSASGSPGQSVTISCTGTSSDVGFYNFVSWYQQHPDKAPKVMIYEVSKRPSGVPDRFSGSKSGNTASLTVSGLQAEDEADYYCSSYAGSNKVVFGGGTKLTVLG | 8.5 | 9.13 nM | 0.6 | 0.000427 s⁻¹ | 46700 M⁻¹ s⁻¹ | 4.6 | 29 nM | 1.08 | 0.000337 s⁻¹ | 11600 M⁻¹ s⁻¹ | 21.2 nM | 11.5 nM | 4.26 nM | no binding (tested: analyte up to 100 nM)

Continued, in another order:

Row | Binding Late top conc [2] | Kd [2] | Stoichiometry [2] | koff [2] | kon [2] | Binding Late top conc [3] | Kd [3] | Stoichiometry [3] | koff [3] | kon [3] | Inhibition enzymatic activity human MTP2 protein (IC50) [4] | Inhibition enzymatic activity mouse MTP2 protein (IC50) [5] | Inhibition enzymatic activity human MTP2 on cells (IC50) [6] | Binder | binding result [1]
3 | 8.6 | 15 nM | 0.48 | 0.00112 s⁻¹ | 74800 M⁻¹ s⁻¹ | 5 | 19.6 nM | 0.47 | 0.000693 s⁻¹ | 35400 M⁻¹ s⁻¹ | 55.5 nM | 17.6 nM | 5.68 nM | NORI-009 (antibody, human IgG4 S228P, lambda, V domains shown, human IgG4PE, lambda) VH: EVQLVESGGGLVQPGRSLRLSCAASGFTFNDHVIYWVRQVPGKGLEWVSTISWNSDTIAYADSVKGRFTISRDNAKNALYLQMNSLRTEDTALYYCAREKDGDFYYDYFAMDVWGQGTTVTVSS VL: QSALTQPPSASGSPGQSVTLSCTGTSSDVGYYNYVSWYLQHPGKAPKLMIYEVSKRPSGVPDRFSGSKSANTASLTVSGLQAEDEADYYCSSYAGSNKVVFGGGTKVTVLG | no binding (tested: analyte up to 100 nM)
4 | – | – | – | – | – | – | – | – | – | – | 2.84 nM | 1.73 nM | 0.206 nM | NORI-033 (antibody, human IgG4 S228P, lambda, V domains shown) VH: QLQLQESGPGLVKPSETLSLTCTVSGDSISSHTYWWGWIRQPPGKGLEWIGSMFYSGSTYYNPSLKSRVVISVDTSRNQFSLKVRSVTAADTAVFYCARHNNWGMENYFDDWGQGTLVTVSS VL: SYALTQPPSVSVSPGQTARITCSADALPDQYGYWYQQKPGQAPVLVIYKDSERPSGIPERFSGSSSGTTVTLTISGVQAEDEADYYCQSADSSGSYVVFGGGTKLTVLG | –
